Experimental data taken from paper PMC11897886 (Nucleic Acids Research, 2024).
Where a chain is given by its changes, count along the chain named.

Columns and labels:
[1] = target: CBP-Upf1-CH-His (S. cerevisiae); experiment: fluorescence polarisation
CBP-Upf1-CH-HD I693R = target: T1, CBP-Upf1-CH-HD I693R (S. cerevisiae, UniProt P30771 54-851, I693R); experiment: pull-down
T1 sequence: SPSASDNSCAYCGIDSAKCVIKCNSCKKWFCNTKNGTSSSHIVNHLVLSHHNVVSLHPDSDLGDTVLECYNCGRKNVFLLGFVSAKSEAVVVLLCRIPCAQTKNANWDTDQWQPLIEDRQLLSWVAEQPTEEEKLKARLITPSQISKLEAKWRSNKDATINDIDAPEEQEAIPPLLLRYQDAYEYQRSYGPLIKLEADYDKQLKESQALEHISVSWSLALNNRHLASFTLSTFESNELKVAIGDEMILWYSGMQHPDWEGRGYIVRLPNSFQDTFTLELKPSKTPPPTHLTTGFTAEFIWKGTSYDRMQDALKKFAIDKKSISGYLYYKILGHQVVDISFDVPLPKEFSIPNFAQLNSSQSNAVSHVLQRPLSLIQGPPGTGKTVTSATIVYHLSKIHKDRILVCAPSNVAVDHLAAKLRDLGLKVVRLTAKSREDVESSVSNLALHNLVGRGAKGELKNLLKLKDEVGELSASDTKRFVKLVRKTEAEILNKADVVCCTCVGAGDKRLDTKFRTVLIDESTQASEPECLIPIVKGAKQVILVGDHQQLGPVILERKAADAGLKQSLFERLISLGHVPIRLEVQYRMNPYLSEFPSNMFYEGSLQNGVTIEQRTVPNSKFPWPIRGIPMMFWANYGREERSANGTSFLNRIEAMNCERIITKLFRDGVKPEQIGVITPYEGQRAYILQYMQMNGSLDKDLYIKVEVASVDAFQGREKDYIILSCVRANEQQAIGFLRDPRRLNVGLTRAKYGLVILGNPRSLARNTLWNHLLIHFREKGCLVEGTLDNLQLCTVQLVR

CBP-Upf1-CH-HD = target: T2, CBP-Upf1-CH-HD (S. cerevisiae, UniProt P30771 54-851); experiment: native gel or EMSA
T2 sequence: T1 sequence with R640I

[2] = target: T3, CBP-Upf1-FL (S.c. Upf1 full-length) (S. cerevisiae, UniProt P30771 1-971); experiment: pull-down
T3 sequence: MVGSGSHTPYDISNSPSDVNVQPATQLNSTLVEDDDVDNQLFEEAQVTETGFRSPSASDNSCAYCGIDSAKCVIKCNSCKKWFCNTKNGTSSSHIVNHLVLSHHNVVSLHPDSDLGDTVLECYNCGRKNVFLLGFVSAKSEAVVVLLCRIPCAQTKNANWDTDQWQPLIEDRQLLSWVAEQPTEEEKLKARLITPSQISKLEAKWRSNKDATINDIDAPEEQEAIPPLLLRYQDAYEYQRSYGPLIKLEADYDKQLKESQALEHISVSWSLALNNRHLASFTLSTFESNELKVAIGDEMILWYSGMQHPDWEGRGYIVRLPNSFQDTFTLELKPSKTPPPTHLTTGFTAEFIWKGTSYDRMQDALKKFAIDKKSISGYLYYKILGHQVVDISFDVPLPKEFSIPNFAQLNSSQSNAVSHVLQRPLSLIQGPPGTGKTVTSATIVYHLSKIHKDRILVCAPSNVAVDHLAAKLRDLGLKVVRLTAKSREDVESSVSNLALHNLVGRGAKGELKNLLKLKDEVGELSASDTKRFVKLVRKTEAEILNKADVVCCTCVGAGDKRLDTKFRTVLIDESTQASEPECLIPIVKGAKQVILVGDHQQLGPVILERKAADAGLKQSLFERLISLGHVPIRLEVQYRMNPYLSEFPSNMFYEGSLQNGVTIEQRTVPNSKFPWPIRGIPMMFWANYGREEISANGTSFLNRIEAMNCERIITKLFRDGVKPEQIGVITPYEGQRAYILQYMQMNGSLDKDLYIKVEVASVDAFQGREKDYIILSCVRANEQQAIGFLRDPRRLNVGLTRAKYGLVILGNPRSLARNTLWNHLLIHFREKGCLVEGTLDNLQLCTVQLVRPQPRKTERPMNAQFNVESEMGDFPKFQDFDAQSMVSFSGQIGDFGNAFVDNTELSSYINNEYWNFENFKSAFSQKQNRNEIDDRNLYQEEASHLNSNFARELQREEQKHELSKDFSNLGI

Dcp2-UBM = target: T4, Dcp2-UBM (Saccharomyces cerevisiae, UniProt P53550 434-720); experiment: pull-down
T4 sequence: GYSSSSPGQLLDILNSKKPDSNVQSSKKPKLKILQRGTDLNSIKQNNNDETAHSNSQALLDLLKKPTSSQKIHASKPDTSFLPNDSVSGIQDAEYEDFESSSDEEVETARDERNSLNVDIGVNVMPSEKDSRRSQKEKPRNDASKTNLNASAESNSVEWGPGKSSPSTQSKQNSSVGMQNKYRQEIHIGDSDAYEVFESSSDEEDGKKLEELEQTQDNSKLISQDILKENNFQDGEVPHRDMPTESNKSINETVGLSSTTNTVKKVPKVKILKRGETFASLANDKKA

Upf1-FL;Nmd4;Dcp2-UBM = target: T5, Upf1-FL;Nmd4;Dcp2-UBM (Saccharomyces cerevisiae;Saccharomyces …, UniProt P30771;Q12129;P53550 1-971;1-218;434-720, ||); experiment: pull-down
T5 sequence 1: T3 sequence
T5 sequence 2: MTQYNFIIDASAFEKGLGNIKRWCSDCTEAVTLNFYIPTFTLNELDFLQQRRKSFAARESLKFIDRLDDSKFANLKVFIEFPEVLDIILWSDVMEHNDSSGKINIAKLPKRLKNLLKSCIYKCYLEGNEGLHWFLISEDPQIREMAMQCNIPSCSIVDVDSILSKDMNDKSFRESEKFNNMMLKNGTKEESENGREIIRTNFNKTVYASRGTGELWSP
T5 sequence 3: T4 sequence

Upf1-FL = target: T6, Upf1-FL (Saccharomyces cerevisiae, UniProt P30771 1-971); experiment: pull-down
T6 sequence: T3 sequence

Upf1-FL;Nmd4 = target: T7, Upf1-FL;Nmd4 (Saccharomyces cerevisiae;Saccharomyces …, UniProt P30771;Q12129 1-971;1-218, |); experiment: pull-down
T7 sequence 1: T3 sequence
T7 sequence 2: T5 sequence 2

Upf1-FL;Dcp2-UBM = target: T8, Upf1-FL;Dcp2-UBM (Saccharomyces cerevisiae;Saccharomyces …, UniProt P30771;P53550 1-971;434-720, |); experiment: pull-down
T8 sequence 1: T3 sequence
T8 sequence 2: T4 sequence

Upf2-Ct = target: T9, Upf2-Ct (Saccharomyces cerevisiae, UniProt P38798 933-1089); experiment: pull-down
T9 sequence: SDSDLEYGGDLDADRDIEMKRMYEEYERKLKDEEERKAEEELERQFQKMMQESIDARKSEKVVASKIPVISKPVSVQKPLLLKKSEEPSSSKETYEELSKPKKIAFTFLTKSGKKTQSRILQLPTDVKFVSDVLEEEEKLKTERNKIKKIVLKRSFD

B1: Upf2 (933-1089)-His (domain or fragment)
chain: T9 sequence
[1]
  Kd: 430 nM
CBP-Upf1-CH-HD I693R
  binding result: binds

B2: Nmd4-His (C-terminal His-tagged Nmd4) (natural protein)
chain: T5 sequence 2
CBP-Upf1-CH-HD
  binding result: binds
[2]
  binding result: binds

## CGUCCAUCUGGUCAUCUAGUGAUAUCAUCG (ssRNA) [3'-biotinylated RNA (30-mer in Methods, called 33-mer in Results)]
Dcp2-UBM
  binding result: no binding
Upf1-FL;Nmd4;Dcp2-UBM
  binding result: binds
Upf1-FL
  binding result: binds
Upf1-FL;Nmd4
  binding result: binds
Upf1-FL;Dcp2-UBM
  binding result: binds
Upf2-Ct
  binding result: no binding
